# Experimental data published in PMC4134230.
# Tests used:
# [1] = test system: Tau (hTau42, longest isoform, unphosphorylated) (Homo sapiens); assay: SPR (equilibrium saturation); settings: immobilized on polylysine-heparin-polylysine gold surface; 10 mM Hepes, 0.1 M NaCl, pH 7; SPR at 13-33 C, DNA immobilized on polylysine-heparin-polylysine gold surface
# [2] = test system: Tau (hTau42, longest isoform, unphosphorylated) (Homo sapiens); assay: SPR (kinetic); settings: average of six determinations, 18-22 C; Kd given as 0.04 uM; immobilized on polylysine-heparin-polylysine gold surface; 10 mM Hepes, 0.1 M NaCl, pH 7; SPR at 13-33 C, DNA immobilized on polylysine-heparin-polylysine gold surface
substance,measurement,setting,value
"calf thymus DNA (activated type XV, Sigma)",Ka,[1],2.3 10^7 M^-1
same,Ka,[2],2.4 10^7 M^-1
